In patent US20060210570A1 (Genentech, published 2006):

B1: prostasin (recombinant human, soluble, active two-chain form purified from conditioned medium of CHO cells transfected with full-length prostasin) (enzyme)
chain: not shown
notes: also called purified prostasin; soluble prostasin
B2: sHAI-1B(K401A) (other, human, UniProt O43278 36-465, looked up)
chain: GPPPAPPGLPAGADCLNSFTAGVPGFVLDTNASVSNGATFLESPTVRRGWDCVRACCTTQNCNLALVELQPDRGEDAIAACFLINCLYEQNFVCKFAPREGFINYLTREVYRSYRQLRTQGFGGSGIPKAWAGIDLKVQPQEPLVLKDVENTDWRLLRGDTDVRVERKDPNQVELWGLKEGTYLFQLTVTSSDHPEDTANVTVTVLSTKQTEDYCLASNKVGRCRGSFPRWYYDPTEQICKSFVYGGCLGNKNNYLREEECILACRGVQGGPLRGSSGAQATFPQGPSMERRHPVCSGTCQPTQFRCSNGCCIDSFLECDDTPNCPDASDEAACEKYTSGFDELQRIHFPSDKGHCVDLPDTGLCAESIPRWYYNPFSEHCARFTYGGCYGNKNNFEEEQQCLESCRGISKKDVFGLRREIPIPSTGSVE
B3: sHAI-1B(R260A) (other, human, UniProt O43278 36-465, looked up)
chain: GPPPAPPGLPAGADCLNSFTAGVPGFVLDTNASVSNGATFLESPTVRRGWDCVRACCTTQNCNLALVELQPDRGEDAIAACFLINCLYEQNFVCKFAPREGFINYLTREVYRSYRQLRTQGFGGSGIPKAWAGIDLKVQPQEPLVLKDVENTDWRLLRGDTDVRVERKDPNQVELWGLKEGTYLFQLTVTSSDHPEDTANVTVTVLSTKQTEDYCLASNKVGRCAGSFPRWYYDPTEQICKSFVYGGCLGNKNNYLREEECILACRGVQGGPLRGSSGAQATFPQGPSMERRHPVCSGTCQPTQFRCSNGCCIDSFLECDDTPNCPDASDEAACEKYTSGFDELQRIHFPSDKGHCVDLPDTGLCKESIPRWYYNPFSEHCARFTYGGCYGNKNNFEEEQQCLESCRGISKKDVFGLRREIPIPSTGSVE

Key:
aprotinin = aprotinin (UniProt P00974 36-93); experiment: affinity chromatography of prostasin on immobilised aprotinin
sHAI-1B(K401A) = biological target: B2; experiment: prostasin incubated with 20 nM mutant sHAI-1B, immunoblot (FIG. 2B)
Procedure: (§1) FIG. 2. […] Prostasin of indicated concentration was incubated with 20 nM wildtype sHAI-1B (A) or mutant sHAI-1B (B) at 37° C. for 0.5 or 2 h. The reactions were stopped by addition of SDS sample buffer with DTT. 30 μl of each sample was boiled or not boiled (as indicated) followed by immunoblotting analysis using anti-HAI-1B polyclonal antibody.
(§2) Prostasin was incubated with sHAI-1B comprising the entire extracellular domain of HAI-1B (Kirchhofer, Peek et al. 2003) at different molar ratios (FIG.2A).

sHAI-1B(R260A) = biological target: B3; experiment: incubation at 37 C, SDS-PAGE and immunoblot with anti-HAI-1B polyclonal antibody
Procedure: as §1, §2

[1] = biological target: B1; experiment: cell-based or functional assay
[2] = biological target: B1; experiment: cell-based or functional assay; remark: listed apart in the source

| Binder | binding result (aprotinin) | binding result (sHAI-1B(K401A)) | binding result (sHAI-1B(R260A)) | IC50 (nM), inhibition of prostasin amidolytic activity towards S2765 [1] [nM] | fold less potent than wildtype sHAI-1B in the prostasin inhibition assay [2] [fold] | inhibitory activity of KD2 relative to KD1 in prostasin enzymatic assays [2] [%] |
| --- | --- | --- | --- | --- | --- | --- |
| B1 | binds | binds | no binding | – | – | – |
| B2 | – | – | – | 75.3 | – | – |
| B3 | – | – | – | > 1000 | ≥ 18 | < 6 |
